Residue numbers refer to the chain shown, from its start.
B1: anti-mutCALR antibody clone 12 (antibody, human IgG1, lambda, V domains shown)
VH: EVQLVQSGAEVKKPGASVKVSCKVSGYTLTELSMQWVRQAPGKGLEWMGGFDPDGGETMYAEKFQGRLTVTEDTSTDTVYMELRSLTSEDTALYFCATSPGYDFFDYWGQGTLVTVSS
VL: SYVLTQPPSVSVAPGQTARVSCGGNNIGSKSVNWYRQKPGQAPVLVIYDDSDRPSGIPERFSGSNSGNTATLTINRVEAGDEADYYCQVWDSSNDLLIFGGGTKLTVLG
notes: human IgG1; group 1
B2: anti-mutCALR antibody clone 19 (antibody, human IgG1, lambda, V domains shown)
VH: B1 VH with G55D, S75P
VL: SYVLTQPLSVSVALGQTARITCGGSNIGDIRVHWYQQKPGQAPVLVVYDDSDRPSGIPERFSGSNSGNTATLTINRVEAGDEADYYCQVWDSSNDLLIFGGGTKLTVLG
notes: human IgG1; group 1
B3: anti-mutCALR antibody clone 15 (antibody, human IgG1, lambda)
heavy: not shown
light: SYELTQPPSVSVAPGKTARITCGGDNIGSKSVHWYQQKPGQAPVLVVYDDSDRPSGIPERFSGSNSGNTATLTINRVEAGDEADYYCQVWDSSNDLLIFGGGTKLTVLGQPKAAPSVTLFPPSSEELQANKATLVCLISDFYPGAVTVAWKADSSPVKAGVETTTPSKQSNNKYAASSYLSLTPEQWKSHRSYSCQVTHEGSTVEKTVAPTECS
notes: human IgG1; group 1
B4: anti-mutCALR antibody clone 11 (antibody, human IgG1, lambda, V domains shown)
VH: B1 VH with Q3R, G55D
VL: QSALTQPRSVSGSPGQSVTISCTGTSSDVGGYNYVSWYQQHPGKAPKLMIYDVSKRPSGVPDRFSGSNSGNTATLTINRVEAGDEADYYCQVWDSSNDLLIFGGGTKLTVLG
notes: human IgG1; group 1
B5: anti-mutCALR antibody clone 22 (antibody, human IgG1, lambda, V domains shown)
VH: B1 VH with G55D
VL: B2 VL with L8P, L14P, Q16K, S25N, D29S, I30K, R31N
notes: human IgG1; group 1
B6: anti-mutCALR antibody clone 18 (antibody, human IgG1, lambda, V domains shown)
VH: B1 VH with G55D
VL: B1 VL with Q16K, V20I, S21T, N33H, R36Q, I47V, S55L
notes: human IgG1; group 1
B7: anti-mutCALR antibody clone 30 (antibody, human IgG1, lambda, V domains shown)
VH: B1 VH with G55D
VL: B2 VL with L8P, L14P, Q16K, R19T, S25N, D29T, I30K, R31S
notes: human IgG1; group 1
B8: anti-mutCALR antibody clone 13 (antibody, human IgG1, lambda, V domains shown)
VH: B1 VH with E1Q, G55D
VL: not shown
notes: human IgG1; group 1
B9: anti-mutCALR antibody clone 16 (antibody, human IgG1, lambda, V domains shown)
VH: B1 VH with G55D
VL: B1 VL with Q16K, V20I, S21T, I27T, N33H, R36Q, I47V
notes: human IgG1; group 1
B10: anti-mutCALR antibody clone 23 (antibody, human IgG1, lambda, V domains shown)
VH: B1 VH with G55D
VL: B2 VL with L8P, L14P, S25N, D29I, I30K, R31S
notes: human IgG1; group 1
B11: anti-mutCALR antibody clone 25 (antibody, human IgG1, lambda, V domains shown)
VH: B1 VH with G55D
VL: B2 VL with V3E, L8P, S11A, L14P, S25N, D29R, I30K, R31A
notes: human IgG1; group 1
B12: anti-mutCALR antibody clone 20 (antibody, human IgG1, lambda, V domains shown)
VH: B1 VH with G55D
VL: B2 VL with L8P, L14P, Q16K, S25N, D29S, I30K, R31G
notes: human IgG1; group 1
B13: anti-mutCALR antibody clone 27 (antibody, human IgG1, lambda, V domains shown)
VH: B1 VH with G55D
VL: B2 VL with L8P, L14P, S25N, D29I, I30K, R31S, S51R
notes: human IgG1; group 1
B14: anti-mutCALR antibody clone 17 (antibody, human IgG1, lambda)
heavy: not shown
light: SYVLTQPPSVSVAPGQTARITCGGSDIGDEIVHWYQQKPGQAPVLVVYDDSDRPSGIPERFSGSNSGNTATLTISRAQAGDEADYYCQVWDSSSDHLIFGGGTKLTVLGQPKAAPSVTLFPPSSEELQANKATLVCLISDFYPGAVTVAWKADSSPVKAGVETTTPSKQSNNKYAASSYLSLTPEQWKSHRSYSCQVTHEGSTVEKTVAPTECS
notes: human IgG1; group 1
B15: anti-mutCALR antibody clone 26 (antibody, human IgG1, lambda, V domains shown)
VH: B1 VH with G55D
VL: B1 VL with V20I, S21T, N33H, R36Q, I47V, N75S, N94I, L96H, L105V
notes: human IgG1; group 1
B16: anti-mutCALR antibody clone 21 (antibody, human IgG1, lambda, V domains shown)
VH: B1 VH with K23E, G55D
VL: B1 VL with N75S
notes: human IgG1; group 1
B17: anti-mutCALR antibody clone 28 (antibody, human IgG1, lambda, V domains shown)
VH: B1 VH with G55D
VL: SYELTQPPSVSVAPGQTARITCGGNNIGSKSVHWYQQKPGQAPVLVVYDDSDRPSGIPERFSGSNSGNTATLTISRVEAGDEADYYCQVWDADSDQLIFGGGTKLTVLG
notes: human IgG1; group 1
B18: anti-mutCALR antibody clone 24 (antibody, human IgG1, lambda, V domains shown)
VH: B1 VH with G55D, F64L
VL: B1 VL with Q16K, V20I, S21T, N33H, R36Q, I47V
notes: human IgG1; group 1
B19: anti-mutCALR antibody clone 29 (antibody, human IgG1, lambda, V domains shown)
VH: B1 VH with G55D
VL: B17 VL with E3V, Q16K, A92S, D93S, Q96L, T103A
notes: human IgG1; group 1
B20: anti-mutCALR antibody clone 48 (antibody, human IgG1, lambda, V domains shown)
VH: EVQLVQSGAEVKKPGSSVKVSCKASGGTFSSYAISWVRQAPGQGLEWMGGIIPIFGTANYAQKFQGRVTITADESTSTAYMELSSLRSEDTAVYYCASSPLRGSGWYWHYYYGMDVWGQGTTVTVSS
VL: SYVLTQPPSVSVAPGKTARITCGGNNIGSKSVHWYQQKPGQAPVLVIYQDRKRPSGIPERFSGSNSGNTATLTISGTQAMDEADYYCQAWDSSTAVFGGGTKLTVLG
B21: anti-mutCALR antibody clone 45 (antibody, human IgG1, lambda, V domains shown)
VH: B20 VH
VL: SYVLTQPLSVSVAPGQTARITCGGNNIGRKSVHWYQQKPGQAPVLVIYRDSNRPSGIPERFSGSNSGNTATLTISRAQAGDEADYYCQVWDSSTVVFGGGTKLTVLG
B22: anti-mutCALR antibody clone 44 (antibody, human IgG1, lambda, V domains shown)
VH: B20 VH
VL: B20 VL with V12A, T21S, G28R, P39A, R51S, S93N, A95V
B23: anti-mutCALR antibody clone 43 (antibody, human IgG1, lambda, V domains shown)
VH: B20 VH with S16A
VL: not shown
B24: anti-mutCALR antibody clone 33 (antibody, human IgG1, lambda, V domains shown)
VH: QVQLVQSGAEVKKPGATVKISCKVSGYSFTDYFIHWVQQAPGKGLAWVGLVDPEDGETIYAEKFQGRVTITADTSTDTAYMELSSLRSEDTAVYYCATPGGILTDPDAFDIWGQGTMVTVSS
VL: QSALTQPRSVSGSPGQSVTISCAGTGSDVGGYNHVSWYQHHPGKAPKLMIYDVNKRPSGVPDRFSGSKSGNTASLTISGLQAEDEADYYCSSYIPSSTRWVFGGGTKLTVLG
notes: human IgG1; group 2
B25: anti-mutCALR antibody clone 34 (antibody, human IgG1, lambda, V domains shown)
VH: B24 VH
VL: QSALTQPASVSGSPGQSITISCTGTSSDVGGYNYVSWYQQHPGKAPKLMIYEVSNRPSGVSNRFSGSKSGNTASLTISGLQAEDEADYYCSSYTSSSTYVFGTGTKVTVLG
notes: human IgG1; group 2
B26: anti-mutCALR antibody clone 41 (antibody, human IgG1, lambda, V domains shown)
VH: EVQLVQSGAEVKKPGASVKVSCKVSGYTLTELSMHWVRQAPGKGLEWMGLVDPEDGETIYAQKFQGRVTMTEDTSTDTAYMELSSLRSEDTAVYYCAREEWSGDGDDAFDIWGQGTMVTVSS
VL: QSVLTQPPSVSAAPGQKVTISCSGSSSNIGSYSVSWYQQLPGTAPKLLIYDNNKRPSGIPDRFSGSNSGTSATLGITGLQTGDEADYYCGTWDSSLSAWVFGGGTKLTVLG
notes: human IgG1; group 4
B27: anti-mutCALR antibody clone 42 (antibody, human IgG1, lambda, V domains shown)
VH: B26 VH
VL: B26 VL with N52D, G75S
notes: human IgG1; group 4
B28: anti-mutCALR antibody clone 40 (antibody, human IgG1, lambda, V domains shown)
VH: B26 VH with L32S
VL: B26 VL
notes: human IgG1; group 4
B29: anti-mutCALR antibody clone 38 (antibody, human IgG1, kappa, V domains shown)
VH: EVQPVQSGAEVKKPGSSVKVSCKASGGTFSSYAISWVRQAPGQGLEWMGLVDPEDGETIYAEKFRGRVTITADTSTDTAYMELSSLRSEDTAVYYCATEESYGPWGQGTLVTVSS
VL: DIQLTQSPSSLSASVGDRVTITCQASQDISNYLNWYQQKPGKAPKLLIYDASNLETGVPSRFSGSGSGTEFTLTISSLQPEDFATYYCQQLNSYPLTFGGGTKLEIKR
notes: human IgG1; group 3
B30: anti-mutCALR antibody clone 39 (antibody, human IgG1, kappa, V domains shown)
VH: B29 VH with P4L, R65Q
VL: B29 VL with N34D
notes: human IgG1; group 3

Biological target: MBP protein (UniProt P0AEX9 27-392 = MBP)
Experiment: SPR (Biacore 8K), antibody captured on anti-human IgG (Fc), MBP injected
Experimental: Experiment 1: Recombinant MBP-mutCALR Type 1 fusion protein was custom made at Cepter (cepterbiopartners.com). Data for the interaction of antibodies with recombinant MBP-mutCALR Type 1 fusion protein were collected at 25° C. on a Biacore 8K instrument (Cytiva, Marlborough, Mass.), and all reagents were obtained from Cytiva unless otherwise specified. The experiments were conducted using Tris-buffered saline (pH 7.2), 0.005% Surfactant P20, 1 mM CaCl₂) as running buffer. To prepare the capture surfaces, anti-human IgG (Fc) antibodies (Product #29234600) was amine-coupled onto a CM4 chip (Product #BR100534) under standard conditions using an Amine Coupling Kit (Product #BR100050). […] The kinetics parameters were obtained by applying 1:1 binding model to fit the data from multiple-cycle injection experiments using Biacore Insight Evaluation software.

| Binder | binding result |
| --- | --- |
| B1 | no binding (tested: 250 nM) |
| B2 | no binding (tested: 250 nM) |
| B3 | no binding (tested: 250 nM) |
| B4 | no binding (tested: 250 nM) |
| B5 | no binding (tested: 250 nM) |
| B6 | no binding (tested: 250 nM) |
| B7 | no binding (tested: 250 nM) |
| B8 | no binding (tested: 250 nM) |
| B9 | no binding (tested: 250 nM) |
| B10 | no binding (tested: 250 nM) |
| B11 | no binding (tested: 250 nM) |
| B12 | no binding (tested: 250 nM) |
| B13 | no binding (tested: 250 nM) |
| B14 | no binding (tested: 250 nM) |
| B15 | no binding (tested: 250 nM) |
| B16 | no binding (tested: 250 nM) |
| B17 | no binding (tested: 250 nM) |
| B18 | no binding (tested: 250 nM) |
| B19 | no binding (tested: 250 nM) |
| B20 | no binding (tested: 250 nM) |
| B21 | no binding (tested: 250 nM) |
| B22 | no binding (tested: 250 nM) |
| B23 | no binding (tested: 250 nM) |
| B24 | no binding (tested: 250 nM) |
| B25 | no binding (tested: 250 nM) |
| B26 | no binding (tested: 250 nM) |
| B27 | no binding (tested: 250 nM) |
| B28 | no binding (tested: 250 nM) |
| B29 | no binding (tested: 250 nM) |
| B30 | no binding (tested: 250 nM) |

— patent publication US20230272055A1 (Incyte, published 2023)
